The values that follow come from article doi:10.1101/2024.01.29.577165.

The stoichiometry N is the number of molecules, sites or subunits per partner or assembly.

For test [1], the target named is Grappling Hook Protein A (GhpA), assembled as the grappling hook (Aureispira sp. CCB-QB1). Briefly: cryo-EM structure.
The target is the same in test [2]. Briefly: cryo-electron tomography with subtomogram averaging.

With “Grappling Hook Protein A (GhpA), assembled as the grappling hook (natural protein)”, the stoichiometry N in test [1] and in test [2] was 7 in each case.
